Experiments:
caveolin-1/CSK complex = assay: Co-immunoprecipitation of caveolin-1 and CSK; assay type: cell-based, human; conditions: HEK 293T cells transfected with WT or Y14A caveolin-1; 5 mM H2O2, 10 min
Procedure: (§1) cDNA encoding full-length human caveolin-1 was obtained from Thermo Scientific (Waltham, MA, USA). The Y14A caveolin-1 mutant was generated using a QuickChange site-directed mutagenesis kit (Stratagene, Santa Clara, CA, USA) using PCR. pCMV-SPORT6-caveolin-1 cDNA (25 ng) was used as a template and added to dNTP mix, Pfu buffer, Pfu turbo DNA polymerase and 125 ng of each of the mutagenic primers: sense, 5′-[…]-3′ and antisense, 5′-[…]-3′. Samples were then incubated at 95°C for 1 min, then for 20 cycles of 95°C for 1 min, 65°C for 4 min, and 68°C for 12 min. The methylated parental DNA template in the PCR product was digested using the DpnI (10 U) restriction enzyme for 3 h at 37°C. […] After mutagenesis, 1 µg of caveolin-1 wild-type (WT) or Y14A mutant DNA was transfected into HEK 293T cells using VIVAMAGIC transfection reagent (VIVAGEN, Seongnam, Korea) containing 10% FBS according to the manufacturer’s instructions for 24 h before treatment with 5 mM H2O2 for 10 min; the cells were then analyzed by immunoblotting.
(§2) Cells were plated and transfected with green fluorescence protein (GFP) siRNA (Samchully Pharm Co. Ltd., Seoul, Korea) as a control group and human CSK siRNA and human SHP-2 siRNA from Bioneer (Daejeon, Korea) using Lipofectamine RNAiMAX (Invitrogen, Carlsbad, CA, USA) according to the manufacturer’s instructions to achieve a final concentration of 300 nM. […]

caveolin-1/SHP-2 complex = assay: Co-immunoprecipitation of caveolin-1 and SHP-2; assay type: cell-based, human; conditions: HEK 293T cells transfected with WT or Y14A caveolin-1; 5 mM H2O2, 10 min
Procedure: as §1, §2

B1: WT caveolin-1: full-length human wild-type caveolin-1 expressed in transfected HEK 293T cells (protein)
chain: MSGGKYVDSEGHLYTVPIREQGNIYKPNNKAMADELSEKQVYDAHTKEIDLVNRDPKHLNDDVVKIDFEDVIAEPEGTHSFDGIWKASFTTFTVTKYWFYRLLSALFGIPMALIWGIYFAILSFLHIWAVVPCIKSFLIEIQCISRVYSIYVHTVCDPLFEAVGKIFSNVRINLQKEI
modifications: phosphotyrosine at 14 after H2O2 treatment
notes: full-length human wild-type caveolin-1 expressed in transfected HEK 293T cells
interaction between CSK and transfected caveolin-1 (caveolin-1/CSK complex): An interaction between CSK and WT caveolin-1, but not Y14A mutant caveolin-1, was observed in the presence of H2O2 | interaction of SHP-2 with transfected caveolin-1 (caveolin-1/SHP-2 complex): SHP-2 interacted with WT caveolin-1, but not mutant caveolin-1, and only in the presence of H2O2

Reference: article PMC3954793, “SHP-2 Binds to Caveolin-1 and Regulates Src Activity via Competitive Inhibition of CSK in Response to H2O2 in Astrocytes” (PLoS ONE, 2014)
